Data from US5310882A, “Somatotropins with alterations in the α-helix 3 region” (priority 1990, dated 1994).
Numbering of substitutions follows the chain as printed. Names may count otherwise.

B1: L115A + A34: rpST with leucine 115 changed to alanine, A34 background (protein, UniProt P01248 27-216, looked up, variant L115A)
Somatotropin: FPAMPLSSLFANAVLRAQHLHQLAADTYKEFERAYIPEGQRYSIQNAQAAFCFSETIPAPTGKDEAQQRSDVELLRFSLLLIQSWLGPVQFLSRVFTNSLVFGTSDRVYEKLKDAEEGIQALMRELEDGSPRAGQILKQTYDKFDTNLRSDDALLKNYGLLSCFKKDLHKAETYLRVMKCRRFVESSCAF
modifications: A34 background
notes: rpST with leucine 115 changed to alanine, A34 background
B2: L118A + A34: rpST with leucine 118 changed to alanine, A34 background (protein, UniProt P01248 27-216, looked up, variant L118A)
Somatotropin: B1 Somatotropin with L92A, A115L
modifications: A34 background
notes: rpST with leucine 118 changed to alanine, A34 background

Tests used:
[1] = Solution stability profile of rpST mutant proteins (solubility in vitro at 43° C.); format: physicochemical; details: pH 7.4
Procedure: The procedure described to determine stability profiles is as follows. […] This is filtered through a millipore sterile Millex-0.22 μm filter unit and 0.1 ml aliquots placed into tubes. These are placed in a 43° C. oven and removed at the required intervals. The contents are then diluted with phosphate buffered saline. The supernatant is assayed for monomer and dimer content by HPLC. A mass balance is done. Any precipitated material is recorded. Results are compared with the initial concentrations and a stability profile documented.

[2] = system: hypophysectomized (hypox) rat; experiment: Hypox rat test for growth enhancement; format: in vivo; details: growth over a period such as 10 days; relative to rpST positive control
Procedure: The efficacy of the recombinant animal somatotropin derivatives of the present invention for altering the growth rate of animals is determined utilizing the hypophysectomized (hypox) rat assay. […] The response measured is growth over a period of time such as 10 days and is presented in Table IV as percent of the biological activity of the rpST positive control, which is included in every trial.

[3] = system: somatotropin receptor from purified liver membranes; experiment: Liver radio-receptor assay (RRA), competition with 125I-rpST; details: competition with 125I-rpST for binding; percent rpST binding

| Molecule | % Soluble [1] [%] | Hypox rat [2] | RRA [3] |
| --- | --- | --- | --- |
| B1 | 0 | 88.6% of the activity of the | 163% of the activity observ |
| B2 | 10 | 64% of the activity of the | 49.5% of the activity observ |
